How the values were obtained:
Assay in all cases: co-IP
[1] = biological target: mGFP-PICK1 5K-E (mouse) (UniProt Q62083)
[2] = biological target: mCherry-PICK1 WT (mouse) (UniProt Q62083)
[3] = biological target: mGFP-KIBRA ΔC2 (mouse) (UniProt Q5SXA9)
[4] = biological target: mGFP-KIBRA ΔCCL (mouse) (UniProt Q5SXA9)
[5] = biological target: mGFP-KIBRA ΔαBR (mouse) (UniProt Q5SXA9)
[6] = biological target: mCherry-KIBRA WT (mouse) (UniProt Q5SXA9)
Sequence of mCherry-KIBRA WT (mouse) (Q5SXA9 whole entry): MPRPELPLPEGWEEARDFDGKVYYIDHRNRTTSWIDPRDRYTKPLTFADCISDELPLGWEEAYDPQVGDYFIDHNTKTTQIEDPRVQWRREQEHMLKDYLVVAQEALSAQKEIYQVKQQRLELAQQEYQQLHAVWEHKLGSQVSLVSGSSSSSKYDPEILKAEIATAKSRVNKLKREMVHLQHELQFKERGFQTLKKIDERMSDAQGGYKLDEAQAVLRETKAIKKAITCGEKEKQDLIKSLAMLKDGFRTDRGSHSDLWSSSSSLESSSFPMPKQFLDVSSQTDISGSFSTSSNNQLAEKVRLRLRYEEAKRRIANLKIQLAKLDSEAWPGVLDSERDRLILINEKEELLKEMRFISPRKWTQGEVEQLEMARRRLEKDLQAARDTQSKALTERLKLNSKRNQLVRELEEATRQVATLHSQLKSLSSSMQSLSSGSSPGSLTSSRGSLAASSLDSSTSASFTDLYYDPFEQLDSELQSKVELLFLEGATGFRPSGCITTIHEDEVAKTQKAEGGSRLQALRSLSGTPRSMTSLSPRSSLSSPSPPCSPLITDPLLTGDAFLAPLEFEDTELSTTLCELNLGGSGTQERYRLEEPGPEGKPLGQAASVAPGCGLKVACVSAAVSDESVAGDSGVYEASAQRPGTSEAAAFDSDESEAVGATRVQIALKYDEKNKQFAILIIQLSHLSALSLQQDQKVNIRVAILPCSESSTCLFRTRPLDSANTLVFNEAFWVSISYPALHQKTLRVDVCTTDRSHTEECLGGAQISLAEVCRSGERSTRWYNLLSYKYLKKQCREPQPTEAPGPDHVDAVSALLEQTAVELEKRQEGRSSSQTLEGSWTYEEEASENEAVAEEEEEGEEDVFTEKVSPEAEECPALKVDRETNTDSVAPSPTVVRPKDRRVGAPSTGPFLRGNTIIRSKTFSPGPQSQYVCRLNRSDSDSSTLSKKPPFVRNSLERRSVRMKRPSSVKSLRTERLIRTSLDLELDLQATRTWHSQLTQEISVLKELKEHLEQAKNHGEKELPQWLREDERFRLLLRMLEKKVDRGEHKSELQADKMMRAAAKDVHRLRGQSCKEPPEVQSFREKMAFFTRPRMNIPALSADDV

Sequence of mCherry-PICK1 WT (mouse) (Q62083 whole entry): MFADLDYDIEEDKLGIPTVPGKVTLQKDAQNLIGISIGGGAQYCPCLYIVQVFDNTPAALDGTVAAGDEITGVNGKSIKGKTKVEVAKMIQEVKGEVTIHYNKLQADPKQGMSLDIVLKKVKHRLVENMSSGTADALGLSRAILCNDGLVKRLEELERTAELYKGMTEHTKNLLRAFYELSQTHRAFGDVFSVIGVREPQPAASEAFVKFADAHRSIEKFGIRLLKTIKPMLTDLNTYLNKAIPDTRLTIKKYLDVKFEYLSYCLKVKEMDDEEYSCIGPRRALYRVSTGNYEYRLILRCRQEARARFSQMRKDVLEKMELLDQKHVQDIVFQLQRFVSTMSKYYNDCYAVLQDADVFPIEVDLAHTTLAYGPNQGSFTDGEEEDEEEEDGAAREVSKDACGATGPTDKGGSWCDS
Sequence of mGFP-KIBRA ΔαBR (Q5SXA9 whole entry, stated change not applied): as the sequence (Q5SXA9 whole entry) above
Sequence of mGFP-KIBRA ΔCCL (Q5SXA9 whole entry, stated change not applied): as the sequence (Q5SXA9 whole entry) above
Sequence of mGFP-KIBRA ΔC2 (Q5SXA9 whole entry, stated change not applied): as the sequence (Q5SXA9 whole entry) above
Sequence of mGFP-PICK1 5K-E (mouse) (Q62083 whole entry): as the sequence (Q62083 whole entry) above
Sequence of mCherry-KIBRA WT (Q5SXA9 whole entry): as the sequence (Q5SXA9 whole entry) above
Sequence of mGFP-KIBRA ΔWW (Q5SXA9 whole entry, stated change not applied): as the sequence (Q5SXA9 whole entry) above
Sequence of mGFP-PICK1 BAR (domain or fragment) (Q62083 whole entry, the tested form may be a part): as the sequence (Q62083 whole entry) above
Sequence of mGFP-PICK1 KD-AA (Q62083 whole entry): as above
Sequence of Myc-GluA2 (P19491 22-883): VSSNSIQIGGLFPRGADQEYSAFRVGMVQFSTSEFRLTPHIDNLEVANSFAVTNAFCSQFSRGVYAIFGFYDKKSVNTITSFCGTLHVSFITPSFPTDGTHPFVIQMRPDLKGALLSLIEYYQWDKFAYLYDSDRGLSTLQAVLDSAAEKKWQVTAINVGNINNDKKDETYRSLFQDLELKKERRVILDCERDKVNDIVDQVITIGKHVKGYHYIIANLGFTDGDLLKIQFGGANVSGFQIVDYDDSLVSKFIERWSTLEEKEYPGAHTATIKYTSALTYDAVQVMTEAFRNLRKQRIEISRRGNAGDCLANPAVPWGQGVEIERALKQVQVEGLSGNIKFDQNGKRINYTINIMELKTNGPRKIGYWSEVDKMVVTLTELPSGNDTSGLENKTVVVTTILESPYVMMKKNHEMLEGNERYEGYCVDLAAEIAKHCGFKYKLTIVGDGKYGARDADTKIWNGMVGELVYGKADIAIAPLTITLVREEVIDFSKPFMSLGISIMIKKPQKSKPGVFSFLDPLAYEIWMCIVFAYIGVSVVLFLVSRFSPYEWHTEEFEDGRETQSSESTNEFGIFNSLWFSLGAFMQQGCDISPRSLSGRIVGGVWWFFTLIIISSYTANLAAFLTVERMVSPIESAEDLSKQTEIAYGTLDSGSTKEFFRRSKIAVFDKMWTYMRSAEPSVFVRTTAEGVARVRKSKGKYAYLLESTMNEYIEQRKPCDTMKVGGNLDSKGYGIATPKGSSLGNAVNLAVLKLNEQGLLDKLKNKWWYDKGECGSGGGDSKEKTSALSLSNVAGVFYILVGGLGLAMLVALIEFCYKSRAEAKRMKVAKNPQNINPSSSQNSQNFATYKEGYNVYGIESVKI

“Myc-GluA2 (from UniProt P19491 22-883) (receptor)” was tested, and the co-precipitated GluA2 relative to PICK1 WT (mCherry-KIBRA co-expressed) [1] was 0.27 fold of WT.
“mCherry-KIBRA WT (from UniProt Q5SXA9 1-1104) (natural protein)” was tested, and the co-precipitated KIBRA relative to PICK1 WT [1] was 0.63 fold of WT.
In the case of “mGFP-KIBRA ΔC2 (from UniProt Q5SXA9 1-1104) (natural protein)”, the co-precipitated KIBRA relative to KIBRA WT [2] is reported as 1.29 fold of WT and the co-precipitated mGFP-KIBRA relative to KIBRA WT [3] is reported as 1.36 fold of WT.
For “mGFP-KIBRA ΔCCL (from UniProt Q5SXA9 1-1104) (natural protein)”, the co-precipitated KIBRA relative to KIBRA WT [2] was 1.48 fold of WT and the co-precipitated mGFP-KIBRA relative to KIBRA WT [4] was 1.6 fold of WT.
For “mGFP-KIBRA ΔWW (from UniProt Q5SXA9 1-1104) (natural protein)”, the co-precipitated KIBRA relative to KIBRA WT [2] was 1.79 fold of WT.
“mGFP-KIBRA ΔαBR (from UniProt Q5SXA9 1-1104) (natural protein)” was tested, and the co-precipitated KIBRA relative to KIBRA WT [2] was 1.94 fold of WT and the co-precipitated mGFP-KIBRA relative to KIBRA WT [5] was 1.55 fold of WT.
mGFP-PICK1 BAR (domain or fragment) was tested, and the co-precipitated PICK1 relative to PICK1 WT [6] was 1.62 fold of WT.
With “mGFP-PICK1 KD-AA (from UniProt Q62083 1-416) (natural protein)” the co-precipitated PICK1 relative to PICK1 WT [6] was 0.81 fold of WT.
